Measurements reported in PMC5643538, “Direct visualization of critical hydrogen atoms in a pyridoxal 5′-phosphate enzyme” (Nature Communications, 2017).

Target: the molecule itself
Test: crystal structure; joint neutron (2.2 Å) and X-ray (2.0 Å) structure at room temperature, pH 7.5, crystal soaked with 300 mM alpha-methyl-DL-aspartate; homodimer in one asymmetric unit

B1: recombinant porcine cytosolic aspartate aminotransferase (enzyme)
chain: MAPPSVFAEVPQAQPVLVFKLIADFREDPDPRKVNLGVGAYRTDDCQPWVLPVVRKVEQRIANDSSLNHEYLPILGLAEFRTCASRLALGDDSPALQEKRVGGVQSLGGTGALRIGAEFLARWYNGTNNKDTPVYVSSPTWENHNGVFTTAGFKDIRSYRYWDTEKRGLDLQGFLSDLENAPEFSIFVLHACAHNPTGTDPTPEQWKQIASVMKRRFLFPFFDSAYQGFASGNLEKDAWAIRYFVSEGFELFCAQSFSKNFGLYNERVGNLTVVAKEPDSILRVLSQMEKIVRVTWSNPPAQGARIVARTLSDPELFHEWTGNVKTMADRILSMRSELRARLEALKTPGTWNHITDQIGMFSFTGLNPKQVEYLINEKHIYLLPSGRINMCGLTTKNLDYVATSIHEAVTKIQ
modifications: pyridoxal 5'-phosphate covalently linked to K258 (internal aldimine; chain B at pH 7.5, both chains at pH 4.0); in chain A at pH 7.5 PLP is linked to alpha-methylaspartate (external aldimine) and K258 is free; protein deuterated
notes: aspartate aminotransferase, cytosolic, pig; the construct and its tag are not described here; also called AAT; source: E. coli T7 Express LacIQ, deuterated (minimal medium with 100% D2O), purified (Ni-NTA)
stoichiometry N: 2
